Test results reported in FireProtDB (doi:10.1038/12277).

Conditions: Escherichia coli (strain K12), pH 5.5, CD, Potassium phosphate 2 mM, KF 5 mM, reversible: yes, whole UniProt chain shown

B1: Ribonuclease HI wild type, P0A7Y4 (protein)
chain: MLKQVEIFTDGSCLGNPGPGGYGAILRYRGREKTFSAGYTRTTNNRMELMAAIVALEALKEHCEVILSTDSQYVRQGITQWIHNWKKRGWKTADKKPVKNVDLWQRLDAALGQHQIKWEWVKGHAGHPENERCDELARAAAMNPTLEDTGYQVEV
- denaturant m value (25 °C, Urea): 2.1 kcal/mol/M
- unfolding free energy (25 °C, Urea): 9.7 kcal/mol
- Tm (Thermal): 47.8 °C
